For this assay, the target named is wild-type human dopamine transporter (human) (UniProt Q01959).
UniProt Q01959, sequence (Q01959 whole entry): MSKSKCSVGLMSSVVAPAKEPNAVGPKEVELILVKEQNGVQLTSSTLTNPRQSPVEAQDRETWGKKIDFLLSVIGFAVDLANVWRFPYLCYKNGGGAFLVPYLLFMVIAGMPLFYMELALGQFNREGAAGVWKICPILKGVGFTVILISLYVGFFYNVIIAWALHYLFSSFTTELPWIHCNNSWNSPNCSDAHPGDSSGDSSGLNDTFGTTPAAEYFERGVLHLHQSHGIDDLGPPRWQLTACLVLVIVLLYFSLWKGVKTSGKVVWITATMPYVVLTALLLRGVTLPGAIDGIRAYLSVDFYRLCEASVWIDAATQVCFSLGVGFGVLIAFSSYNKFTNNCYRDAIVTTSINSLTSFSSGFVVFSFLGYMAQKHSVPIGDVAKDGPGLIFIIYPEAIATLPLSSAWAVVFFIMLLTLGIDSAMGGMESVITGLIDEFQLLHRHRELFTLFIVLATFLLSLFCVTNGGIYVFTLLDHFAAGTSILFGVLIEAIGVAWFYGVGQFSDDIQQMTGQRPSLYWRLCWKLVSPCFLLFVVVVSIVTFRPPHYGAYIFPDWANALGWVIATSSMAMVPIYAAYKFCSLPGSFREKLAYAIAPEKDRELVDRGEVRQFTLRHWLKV

As for “Recombinant Tat1-86 (from UniProt P04608 1-86) (natural protein)”, the decrease in DA uptake by WT hDAT in the presence of recombinant Tat1-86 was determined as 31%.

Source of the values: article PMC5685495.
